Assay results taken from patent US20100260668A1 (published 2010).
Where “and” joins values, the source holds several entries; their conditions need not be identical. Identical values can stand only once.

Experiments:
[1] = target: T1, biotin-labeled human IGF2 (human, UniProt P01344 25-91, biotin-labeled); experiment: capture ELISA, antibody captured by anti-human Fc, biotin-labeled IGF2
[2] = target: T2, biotin-labeled human IGF1 (human, UniProt P05019 49-118, biotin-labeled); experiment: capture ELISA, antibody captured by anti-human Fc, biotin-labeled IGF1
[3] = target: T3, IGF1R (antigen of the capture ELISA table) (UniProt P08069 31-932, limits assumed); experiment: antigen capture ELISA, IGF1R
T3 construct: No IGF1R capture ELISA method is described; also called IGFR

[4] = target: T4, his-tagged, recombinant RON protein (R&D Systems # 1947-MS) (UniProt Q04912 25-957, limits assumed); experiment: IgG-Fc capture ELISA, his-tagged RON
T4 construct: extracellular domain; also called MSP Receptor ECD-His tag

[5] = target: T4, his-tagged, recombinant RON protein …; experiment: IgG-Fc capture ELISA, his-tagged RON; N-terminal VD
IGF2 (IGF-2) [6] = target: T5, IGF2 (IGF-2) (UniProt P01344 25-91); experiment: Direct Bind ELISA, antigen on plate; second value of IGF1/IGF2 cell
T5 construct: Bought reagent

IGF1 (IGF-I) [7] = target: T6, IGF1 (IGF-I) (UniProt P05019 49-118); experiment: Direct Bind ELISA, antigen on plate; first value of IGF1/IGF2 cell
T6 construct: Bought reagent

[8] = target: T2, biotin-labeled human IGF1; experiment: capture ELISA, DVD-Ig captured by anti-human Fc, biotin-labeled IGF1; C-terminal VD
[9] = target: T1, biotin-labeled human IGF2; experiment: capture ELISA, DVD-Ig captured by anti-human Fc, biotin-labeled IGF2; C-terminal VD
biotinylated VEGF [10] = target: T7, biotinylated VEGF (UniProt P15692-4 27-191, limits assumed, biotinylated); experiment: capture ELISA, DVD-Ig captured by anti-human Fc, biotinylated VEGF; N-terminal VD
[11] = target: T8, biotin-labeled human DLL4 extracellular domain (human, UniProt Q9NR61 27-529, biotin-labeled); experiment: DLL4 capture ELISA, antibody captured by anti-human Fc, biotin-labeled human DLL4 ECD
T8 construct: extracellular domain

[12] = target: T8, biotin-labeled human DLL4 extracellular …; experiment: capture ELISA, antibody captured by anti-human Fc, biotin-labeled human DLL4 ECD
[13] = target: T8, biotin-labeled human DLL4 extracellular …; experiment: capture ELISA, DVD-Ig captured by anti-human Fc, biotin-labeled human DLL4 ECD; C-terminal VD
biotinylated VEGF [14] = target: T7, biotinylated VEGF; experiment: VEGF capture ELISA, antibody captured by anti-human Fc, biotinylated VEGF
IGF2 (IGF-2) [15] = target: T5, IGF2 (IGF-2); experiment: Direct Bind ELISA, antigen on plate; C-terminal VD; second value of IGF1/IGF2 cell
IGF1 (IGF-I) [16] = target: T6, IGF1 (IGF-I); experiment: Direct Bind ELISA, antigen on plate; C-terminal VD; first value of IGF1/IGF2 cell
IGF1 (IGF-I) [17] = target: T6, IGF1 (IGF-I); experiment: Direct Bind ELISA, antigen on plate; N-terminal VD; first value of IGF1/IGF2 cell
IGF2 (IGF-2) [18] = target: T5, IGF2 (IGF-2); experiment: Direct Bind ELISA, antigen on plate; N-terminal VD; second value of IGF1/IGF2 cell
DLL4 (DLL4 ECD/His tag) = target: T9, DLL4 (DLL4 ECD/His tag) (UniProt Q9NR61 27-529, limits assumed); experiment: Direct Bind ELISA, antigen on plate
T9 construct: extracellular domain; Bought reagent

T7 sequence (P15692 other isoform, or with tags, fused parts or gaps limits assumed): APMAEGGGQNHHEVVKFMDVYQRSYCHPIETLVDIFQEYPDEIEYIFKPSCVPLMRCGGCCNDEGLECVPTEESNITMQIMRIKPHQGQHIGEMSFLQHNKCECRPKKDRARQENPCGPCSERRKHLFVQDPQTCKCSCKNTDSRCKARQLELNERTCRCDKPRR

B1: AB010 (antibody, human IgG1, lambda, V domains shown)
VH: QVQLVQSGAEVKKPGASVKVSCKASGYTFTSYDINWVRQATGQGLEWMGWMNPNSGNTGYAQKFQGRVTMTRNTSISTAYMELSSLRSEDTAVYYCARDPYYYYYGMDVWGQGTTVTVSS
VL: QSVLTQPPSVSAAPGQKVTISCSGSSSNIENNHVSWYQQLPGTAPKLLIYDNNKRPSGIPDRFSGSKSGTSATLGITGLQTGDEADYYCETWDTSLSAGRVFGGGTKLTVLG
notes: also called IGF1,2 parent antibody
EC50 [1]: 10 nM and 18.1 nM | EC50 [2]: 4.8 nM

B2: AB011 (antibody, human IgG1, kappa, V domains shown)
VH: EVQLLESGGGLVQPGGSLRLSCTASGFTFSSYAMNWVRQAPGKGLEWVSAISGSGGTTFYADSVKGRFTISRDNSRTTLYLQMNSLRAEDTAVYYCAKDLGWSDSYYYYYGMDVWGQGTTVTVSS
VL: DIQMTQFPSSLSASVGDRVTITCRASQGIRNDLGWYQQKPGKAPKRLIYAASRLHRGVPSRFSGSGSGTEFTLTISSLQPEDFATYYCLQHNSYPCSFGQGTKLEIKR
EC50 [3]: 0.3 nM

B3: AB005 (antibody, human IgG1, kappa, V domains shown)
VH: EVQLVQSGGGLVKPGGSLRLSCAASGFTFSSYAMHWVRQAPGKGLEWVAVISYDGSNKYYADSVKGRFTISRDNSKNTLYLQMNSLRAEDTAVYYCARFSGWPNNYYYYGMDVWGQGTTVTVSS
VL: DVVMTQSPLSLPVTPGEPASISCRSSQSLLHSNGFNYVDWYLQKPGQSPHLLIYFGSYRASGVPDRFSGSGSGTDFTLKISRVEAEDVGVYYCMQALQTPPWTFGQGTKVEIRR
EC50 [4]: 1.6 nM and 0.7 nM and 1.3 nM

B4: DVD033 (bispecific antibody, human IgG1, kappa)
heavy: not shown
light: DVVMTQSPLSLPVTPGEPASISCRSSQSLLHSNGFNYVDWYLQKPGQSPHLLIYFGSYRASGVPDRFSGSGSGTDFTLKISRVEAEDVGVYYCMQALQTPPWTFGQGTKVEIRRTVAAPDIQMTQSPSSVSASVGDRVTITCRASQGISSWLAWYQQKPGKAPNLLIYEASSLQSGVPSRFGGSGSGTDFTLTISSLQPEDFATYYCQQANGFPWTFGQGTKVEIKRTVAAPSVFIFPPSDEQLKSGTASVVCLLNNFYPREAKVQWKVDNALQSGNSQESVTEQDSKDSTYSLSSTLTLSKADYEKHKVYACEVTHQGLSSPVTKSFNRGEC
notes: DVD-Ig; also called RON / HGF DVD-Ig; DVD033H
EC50 [5]: 2.5 nM

B5: AB010 (anti-IGF1,2 parent antibody) (antibody, IgG1, V domains shown)
VH: QVQLVQSGAEVKKPGASVKVSCKASGYTFTSYDINWVRQATGQGLEWMGWMNPNSGNTGYAQKFQGRVTMTRNTSISTAYMELSSLRSEDTAVYYCARDPYYYYYGMDVWGQGTTVTVSS
VL: QSVLTQPPSVSAAPGQKVTISCSGSSSNIENNHVSWYQQLPGTAPKLLIYDNNKRPSGIPDRFSGSKSGTSATLGITGLQTGDEADYYCETWDTSLSAGRVFGGGTKLTVLG
notes: HC vector V1 (wild-type hIgG1 constant), LC vector V3 (lambda constant); also called AB010VH; AB010VL
EC50 (IGF2 (IGF-2) [6]): 10 nM and 18.1 nM | EC50 (IGF1 (IGF-I) [7]): 4.77 nM

B6: DVD041 (bispecific antibody, human IgG1, lambda)
heavy: not shown
light: DIQMTQSPSSLSASVGDRVTITCSASQDISNYLNWYQQKPGKAPKVLIYFTSSLHSGVPSRFSGSGSGTDFTLTISSLQPEDFATYYCQQYSTVPWTFGQGTKVEIKRTVAAPQSVLTQPPSVSAAPGQKVTISCSGSSSNIENNHVSWYQQLPGTAPKLLIYDNNKRPSGIPDRFSGSKSGTSATLGITGLQTGDEADYYCETWDTSLSAGRVFGGGTKLTVLGQPKAAPSVTLFPPSSEELQANKATLVCLISDFYPGAVTVAWKADSSPVKAGVETTTPSKQSNNKYAASSYLSLTPEQWKSHRSYSCQVTHEGSTVEKTVAPTECS
notes: DVD-Ig; also called VEGF / IGF1,2 DVD-Ig; DVD041H
EC50 [8]: 381 nM | EC50 [9]: 7340 nM | EC50 (biotinylated VEGF [10]): 0.7 nM

B7: AB015 (antibody, human IgG1, kappa)
heavy: not shown
light: DIQMTQSPSSLSASVGDRVTITCRASQDVSTAVAWYQQKPGKAPKLLIYSASFLYSGVPSRFSGSGSGTDFTLTISSLQPEDFATTYYCQQSYTGTVTFGQGTKVEIKRTVAAPSVFIFPPSDEQLKSGTASVVCLLNNFYPREAKVQWKVDNALQSGNSQESVTEQDSKDSTYSLSSTLTLSKADYEKHKVYACEVTHQGLSSPVTKSFNRGEC
EC50 [11]: 0.15 nM and 0.18 nM and 0.14 nM | EC50 [12]: 0.03 nM

B8: DVD043 (bispecific antibody, human IgG1, kappa)
heavy: not shown
light: DIQMTQSPSSLSASVGDRVTITCSASQDISNYLNWYQQKPGKAPKVLIYFTSSLHSGVPSRFSGSGSGTDFTLTISSLQPEDFATYYCQQYSTVPWTFGQGTKVEIKRTVAAPDIQMTQSPSSLSASVGDRVTITCRASQDVSTAVAWYQQKPGKAPKLLIYSASFLYSGVPSRFSGSGSGTDFTLTISSLQPEDFATTYYCQQSYTGTVTFGQGTKVEIKRTVAAPSVFIFPPSDEQLKSGTASVVCLLNNFYPREAKVQWKVDNALQSGNSQESVTEQDSKDSTYSLSSTLTLSKADYEKHKVYACEVTHQGLSSPVTKSFNRGEC
notes: DVD-Ig; also called VEGF / DLL4 DVD-Ig; DVD043H
EC50 [13]: 0.5 nM | EC50 (biotinylated VEGF [10]): 0.2 nM

B9: AB071 (antibody, human IgG1, kappa, L234A L235A, V domains shown)
VH: EVQLVESGGGLVQPGGSLRLSCAASGFTINASWIHWVRQAPGKGLEWVGAIYPYSGYTNYADSVKGRFTISADTSKNTAYLQMNSLRAEDTAVYYCARWGHSTSPWAMDYWGQGTLVTVSS
VL: DIQMTQSPSSLSASVGDRVTITCRASQVIRRSLAWYQQKPGKAPKLLIYAASNLASGVPSRFSGSGSGTDFTLTISSLQPEDFATYYCQQSNTSPLTFGQGTKVEIKR
EC50 (biotinylated VEGF [14]): 0.38 nM

B10: DVD041 (VEGF (seq. 1) and IGF1,2 DVD-Ig) (bispecific antibody, IgG1)
VH: EVQLVESGGGLVQPGGSLRLSCAASGYTFTNYGMNWVRQAPGKGLEWVGWINTYTGEPTYAADFKRRFTFSLDTSKSTAYLQMNSLRAEDTAVYYCAKYPHYYGSSHWYFDVWGQGTLVTVSSASTKGPQVQLVQSGAEVKKPGASVKVSCKASGYTFTSYDINWVRQATGQGLEWMGWMNPNSGNTGYAQKFQGRVTMTRNTSISTAYMELSSLRSEDTAVYYCARDPYYYYYGMDVWGQGTTVTVSS
VL: DIQMTQSPSSLSASVGDRVTITCSASQDISNYLNWYQQKPGKAPKVLIYFTSSLHSGVPSRFSGSGSGTDFTLTISSLQPEDFATYYCQQYSTVPWTFGQGTKVEIKRTVAAPQSVLTQPPSVSAAPGQKVTISCSGSSSNIENNHVSWYQQLPGTAPKLLIYDNNKRPSGIPDRFSGSKSGTSATLGITGLQTGDEADYYCETWDTSLSAGRVFGGGTKLTVLG
notes: HC vector V1 (wild-type hIgG1 constant), LC vector V5 (kappa signal peptide, lambda constant); also called DVD041H; DVD041L
EC50 (IGF2 (IGF-2) [15]): 7340 nM | EC50 (IGF1 (IGF-I) [16]): 381 nM

B11: DVD042 (IGF1,2 and VEGF (seq. 1) DVD-Ig) (bispecific antibody, IgG1)
VH: QVQLVQSGAEVKKPGASVKVSCKASGYTFTSYDINWVRQATGQGLEWMGWMNPNSGNTGYAQKFQGRVTMTRNTSISTAYMELSSLRSEDTAVYYCARDPYYYYYGMDVWGQGTTVTVSSASTKGPEVQLVESGGGLVQPGGSLRLSCAASGYTFTNYGMNWVRQAPGKGLEWVGWINTYTGEPTYAADFKRRFTFSLDTSKSTAYLQMNSLRAEDTAVYYCAKYPHYYGSSHWYFDVWGQGTLVTVSS
VL: QSVLTQPPSVSAAPGQKVTISCSGSSSNIENNHVSWYQQLPGTAPKLLIYDNNKRPSGIPDRFSGSKSGTSATLGITGLQTGDEADYYCETWDTSLSAGRVFGGGTKLTVLGQPKAAPDIQMTQSPSSLSASVGDRVTITCSASQDISNYLNWYQQKPGKAPKVLIYFTSSLHSGVPSRFSGSGSGTDFTLTISSLQPEDFATYYCQQYSTVPWTFGQGTKVEIKR
notes: HC vector V1 (wild-type hIgG1 constant), LC vector V4 (lambda signal peptide, kappa constant); also called DVD042H; DVD042L
EC50 (IGF1 (IGF-I) [17]): 2.54 nM | EC50 (IGF2 (IGF-2) [18]): 17.6 nM

B12: AB015 (anti-DLL-4 (seq. 1) parent antibody) (antibody, IgG1, V domains shown)
VH: EVQLVESGGGLVQPGGSLRLSCAASGFTFTDNWISWVRQAPGKGLEWVGYISPNSGFTYYADSVKGRFTISADTSKNTAYLQMNSLRAEDTAVYYCARDNFGGYFDYWGQGTLVTVSS
VL: DIQMTQSPSSLSASVGDRVTITCRASQDVSTAVAWYQQKPGKAPKLLIYSASFLYSGVPSRFSGSGSGTDFTLTISSLQPEDFATTYYCQQSYTGTVTFGQGTKVEIKR
notes: HC vector V1 (wild-type hIgG1 constant), LC vector V2 (kappa constant); also called AB015VH; AB015VL
EC50 (DLL4 (DLL4 ECD/His tag)): 0.31 nM
